Relative biological activity (mean IC50 of reference standard / IC50 of sample x 100%); inhibition of IL-12-stimulated IFN-γ production of NK-92 cells, IFN-γ measured by ELISA data for 1 substance are collected here from patent US20120177704A1.

For the assay, the target named is human interleukin 12 (human) (UniProt P29459). The experiment in a line: cell-based or functional assay.
Sequence of UniProt P29459 (P29459 23-219 limits assumed, chain 1 of 2): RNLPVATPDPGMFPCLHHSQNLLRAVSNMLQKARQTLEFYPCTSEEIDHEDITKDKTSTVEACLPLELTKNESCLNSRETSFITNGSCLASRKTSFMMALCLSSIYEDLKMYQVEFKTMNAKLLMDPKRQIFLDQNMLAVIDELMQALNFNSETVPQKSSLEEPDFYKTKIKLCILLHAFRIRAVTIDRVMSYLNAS
Sequence of UniProt P29459 (P29460 23-328 limits assumed, chain 2 of 2, further chain): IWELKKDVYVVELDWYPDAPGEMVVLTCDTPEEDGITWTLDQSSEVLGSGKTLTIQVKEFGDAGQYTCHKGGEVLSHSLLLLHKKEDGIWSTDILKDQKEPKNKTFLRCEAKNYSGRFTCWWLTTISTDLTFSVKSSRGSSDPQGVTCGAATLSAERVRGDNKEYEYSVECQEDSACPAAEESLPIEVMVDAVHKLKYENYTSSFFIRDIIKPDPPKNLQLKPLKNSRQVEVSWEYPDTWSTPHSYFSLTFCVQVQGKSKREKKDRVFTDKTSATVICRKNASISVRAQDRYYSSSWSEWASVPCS

Take monoclonal antibody ABT-874: the relative biological activity (mean IC50 of reference standard / IC50 of sample x 100%); inhibition of IL-12-stimulated IFN-γ production of NK-92 cells, IFN-γ measured by ELISA came to 98%.
